B1: monoclonal antibody 2D3.7 (IgA) (antibody, V domains shown)
VH: VQLQESGPGLVAPSQSLSITCTVSGFSLTSYGVHWIRQPSGKGLEWLGVIWPGGSTNYNSALMSRLSISKDNSQSQVVLKMNSLQTDDSAMYYCARGRVAAWFAYWGQGTLVTVSA
VL: DIVMTQSQKFMSTSVGDRVSVTCTASQNVGTSVAWYLQRPGQSPEALIYSASYRNSGVPDRFTGSGSGTDFTLTISNVQSEDLADYFCQQYNNYPFTFGSGTKLEIK
notes: VH before the CDR3 loop; heavy chain CDR3 loop as printed; nearly identical to the light chain variable domain of PDB 2AEQ; IgA; also called MAb 2D3; IgA MAb 2D3
B2: murine norovirus MNV1.CW3 (GV/MNV1/2002/USA) virions, capsid protein (natural protein)
chain: MRMSDGAAPKANGSEASGQDLVPAAVEQAVPIQPVAGAALAAPAAGQINQIDPWIFQNFVQCPLGEFSISPRNTPGEILFDLALGPGLNPYLAHLSAMYTGWVGNMEVQLVLAGNAFTAGKVVVALVPPYFPKGSLTTAQITCFPHVMCDVRTLEPIQLPLLDVRRVLWHATQDQEESMRLVCMLYTPLRTNSPGDESFVVSGRLLSKPAADFNFVYLTPPIERTIYRMVDLPVIQPRLCTHARWPAPVYGLLVDPSLPSNPQWQNGRVHVDGTLLGTTPISGSWVSCFAAEAAYKFQSGTGEVATFTLIEQDGSAYVPGDRAAPLGYPDFSGQLEIEVQTETTKTGDKLKVTTFEMILGPTTNADQAPYQGRVFASVTAAASLDLVDGRVRAVPRSIYGFQDTIPEYNDGLLVPLAPPIGPFLPGEVLLRFRTYMRQIDTADAAAEAIDCALPQEFVSWFASNAFTVQSEALLLRYRNTLTGQLLFECKLYNEGYIALSYSGSGPLTFPTDGIFEVVSWVPRLYQLASVGSLATGRMLKQ
notes: capsid protein (VP1) of murine norovirus 1, strain MNV1.CW3, in whole infectious virions; S domain and P domain; Whole virions with a T=3 capsid; the antigen of the antibodies is the capsid protein; The UniProt entry recalled is of MNV1, not checked for the CW3 clone; also called MVV1; source: RAW 264.7 cells, infected; concentrated virus stock (ELISA); purified virions (ultracentrifugation, …)

Columns and labels:
[1] = biological target: murine norovirus CR6 (GV/CR6/2005/USA) virions, capsid protein (Murine norovirus GV/CR6/2005/USA, UniProt A7YK31, strain); assay: cell-based or functional assay
[2] = biological target: murine norovirus CR7 (GV/CR7/2005/USA) virions, capsid protein (Murine norovirus GV/CR7/2005/USA, UniProt A7YK34, strain); assay: cell-based or functional assay
[3] = biological target: murine norovirus MNV1.CW3 (GV/MNV1/2002/USA) virions, capsid protein (murine norovirus (MNV1.CW3), UniProt Q80J94); assay: cell-based or functional assay
[4] = biological target: murine norovirus MNV3 virions, capsid protein (Murine norovirus, strain MNV3, UniProt Q38JA1, strain); assay: cell-based or functional assay
[5] = biological target: murine norovirus CR3 (GV/CR3/2005/USA) virions, capsid protein (Murine norovirus GV/CR3/2005/USA, UniProt A7YK22, strain); assay: cell-based or functional assay
[6] = biological target: murine norovirus WU20 (GV/WU20/2005/USA) virions, capsid protein (Murine norovirus GV/WU20/2005/USA, UniProt A7YJZ8, strain); assay: cell-based or functional assay
[7] = biological target: murine norovirus MNV4 virions, capsid protein (Murine norovirus, strain MNV4, UniProt Q38J98, strain); assay: cell-based or functional assay
[8] = biological target: murine norovirus CR1 (GV/CR1/2005/USA) virions, capsid protein (Murine norovirus GV/CR1/2005/USA, UniProt A7YK19, strain); assay: cell-based or functional assay
[9] = biological target: murine norovirus WU11 (GV/WU11/2005/USA) virions, capsid protein (Murine norovirus GV/WU11/2005/USA, UniProt A7YJZ2, strain); assay: cell-based or functional assay
[10] = biological target: murine norovirus S99 (Berlin/06/06/DE) virions, capsid protein (murine norovirus (strain S99))
[11] = biological target: T1, human norovirus GII.4 Saga (2006-Saga) virus-like particles (Norovirus Hu/GII-4/Saga1/2006/JP …, UniProt B5BTR4, strain); assay: ELISA; data not shown; HuNoV VLPs (1 µg of each VLP per well in 100 µl PBS, 24 h at 4°C) tested with the MAbs; settings: both partners purified
T1 construct: capsid protein of human norovirus GII.4 Saga (2006), as virus-like particles; also called 2006-Saga [GII.4]; source: provided by Grant Hansman (University of Heidelberg); expressed and purified as previously described (62)

[12] = biological target: T2, human norovirus GII.12 Hiro virus-like particles (Human norovirus GII.12 Hiro, UniProt Q54AD6, strain); assay: as above; settings: both partners purified
T2 construct: capsid protein of human norovirus GII.12 Hiro, as virus-like particles; also called Hiro [GII.12]; source: provided by Grant Hansman (University of Heidelberg); expressed and purified as previously described (62)

[13] = biological target: T3, human norovirus GII.4 Sydney (2012-Sydney) virus-like particles (Human norovirus GII.4 …, UniProt K4LM89, strain); assay: as above; settings: both partners purified
T3 construct: capsid protein of human norovirus GII.4 Sydney (2012), as virus-like particles; also called 2012-Sydney [GII.4]; source: provided by Grant Hansman (University of Heidelberg); expressed and purified as previously described (62)

[14] = biological target: T4, human norovirus GII.10 Vietnam026 virus-like particles (Human norovirus GII.10 Vietnam026, UniProt Q5F4T5, strain); assay: as above; settings: both partners purified
T4 construct: capsid protein of human norovirus GII.10 Vietnam026, as virus-like particles; also called Vietnam026 [GII.10]; source: provided by Grant Hansman (University of Heidelberg); expressed and purified as previously described (62)

[15] = biological target: T5, human norovirus genogroup I Norwalk virus (NV) virus-like particles (Human norovirus GI, strain of AY502016 …, UniProt Q6EAV2); assay: as above; settings: both partners purified
T5 construct: capsid protein of human norovirus genogroup I strain Norwalk virus, as virus-like particles; also called Norwalk virus VLP; source: provided by Grant Hansman (University of Heidelberg); expressed and purified as previously described (62)

[16] = biological target: the molecule itself; assay: cryo-EM structure; 2D3 Fab added to purified infectious MNV1 virions; image reconstruction at 8.7 Å (FSC 0.143) / 9.9 Å (FSC 0.5), fitted with atomic models of the P domain dimer and a modelled Fab

Row | Binder | plaque neutralization assay: 5 × 10^4 PFU with 0 to 1,000 ng MAb, 30 min at 37°C; virus titer relative to no antibody [1] | plaque neutralization assay: 5 × 10^4 PFU with 0 to 1,000 ng MAb, 30 min at 37°C; virus titer relative to no antibody [2] | plaque neutralization assay: 5 × 10^4 PFU with 0 to 1,000 ng MAb, 30 min at 37°C; virus titer relative to no antibody [3] | plaque neutralization assay: 5 × 10^4 PFU with 0 to 1,000 ng MAb, 30 min at 37°C; virus titer relative to no antibody [4] | plaque neutralization assay: 5 × 10^4 PFU with 0 to 1,000 ng MAb, 30 min at 37°C; virus titer relative to no antibody [5] | plaque neutralization assay: 5 × 10^4 PFU with 0 to 1,000 ng MAb, 30 min at 37°C; virus titer relative to no antibody [6] | plaque neutralization assay: 5 × 10^4 PFU with 0 to 1,000 ng MAb, 30 min at 37°C; virus titer relative to no antibody [7] | plaque neutralization assay: 5 × 10^4 PFU with 0 to 1,000 ng MAb, 30 min at 37°C; virus titer relative to no antibody [8] | plaque neutralization assay: 5 × 10^4 PFU with 0 to 1,000 ng MAb, 30 min at 37°C; virus titer relative to no antibody [9] | plaque neutralization assay: 5 × 10^4 PFU with 0 to 1,000 ng MAb, 30 min at 37°C; virus titer relative to no antibody [10] | binding result [11] | binding result [12] | binding result [13] | binding result [14] | binding result [15] | binding result [16]
1 | B1 | ≥ 1 log | ≥ 1 log | ≥ 1 log | ≥ 1 log | ≥ 1 log | ≥ 1 log | ≥ 1 log | ≥ 1 log | ≥ 1 log | > 1 log | no binding | no binding | no binding | no binding | no binding | –
2 | B2 | – | – | – | – | – | – | – | – | – | – | – | – | – | – | – | binds
